B1: Hairpin Ribozyme (parent)
chain: GUCCUCUUUCACGUGCGCGUGAAAGAGAGAAGUGAACCAGAGAAACACACGUUGUGGUAUAUUACCUGGUA

Variants of: B1
Assay: self-cleavage, relative activity (ratio to wild type); higher = more cleavage; co-transcriptional

Variant | self-cleavage
GUCCUCUUUCACGUGCGCGUGAAAGAGAGAAGUGAACCAGAGUAACACACCUUGUGGUAUAUUACCUGGUA | 0.241
GUCCUCUUUCACGUGCGCGUGAAAGAGAGAAGUGAACCAGAGUAACACACAUUGUGGUAUAUUACCUGGUA | 0.247
GUCCUCUUUCACGUGCGCGUGAAAGAGAGAAGUGAACCAGAGUAACACACUUUGUGGUAUAUUACCUGGUA | 0.0946
GUCCUCUUUCACGUGCGCGUGAAAGAGAGAAGUGAACCAGAGGAACACACGUUGUGGUAUAUUACUUGGUA | 0.139
GUCCUCUUUCACGUGCGCGUGAAAGAGAGAAGUGAACCAGAGGAACACACGUUGUGGUAUAUUACGUGGUA | 0.0518
GUCCUCUUUCACGUGCGCGUGAAAGAGAGAAGUGAACCAGAGGAACACACGUUGUGGUAUAUUACAUGGUA | 0.171
GUCCUCUUUCACGUGCGCGUGAAAGAGAGAAGUGAACCAGAGGAACACAAGUUGUGGUAUAUUACCUGGUA | 0.131
GUCCUCUUUCACGUGCGCGUGAAAGAGAGAAGUGAACCAGAGACACACACGUUGUGGUAUAUUACCUGGUC | 0.323
GUCCUCUUUCACGUGCGCGUGAAAGAGAGAAGUGAACCAGAGGAACAGACGUUGUGGUAUAUUACCUGGUA | 0.139
GUCCUCUUUCACGUGCGCGUGAAAGAGAGAAGUGAACCAGAGGAACACACGUUGUGGUAUAUUUCCUGGUA | 0.302
GUCCUCUUUCACGUGCGCGUGAAAGAGAGAAGUGAACCAGAGACACACACGUUGUGGUAUAAUACCUGGUA | 0.156
GUCCUCUUUCACGUGCGCGUGAAAGAGAGAAGUGAACCAGAGGAACACACGUUGUGGUAUAUUACCUGGUU | 0.16
GUCCUCUUUCACGUGCGCGUGAAAGAGAGAAGUGAACCAGAGGAACACACGUUGUGGUAUAUUACCUGGUG | 0.165
GUCCUCUUUCACGUGCGCGUGAAAGAGAGAAGUGAACCAGAGGAACACACGUUGUGGUAUAUUACCUGGUC | 0.458
GUCCUCUUUCACGUGCGCGUGAAAGAGAGAAGUGAACCAGAGACACAGACGUUGUGGUAUAUUACCUGGUA | 0.151
GUCCUCUUUCACGUGCGCGUGAAAGAGAGAAGUGAACCAGAGACACAAACGUUGUGGUAUAUUACCUGGUA | 0.161
GUCCUCUUUCACGUGCGCGUGAAAGAGAGAAGUGAACCAGAGGAACACACGUUGUGGUACAUUACCUGGUA | 0.0979
GUCCUCUUUCACGUGCGCGUGAAAGAGAGAAGUGAACCAGAGACACACACGUUGUGGUGUAUUACCUGGUA | 0.158
GUCCUCUUUCACGUGCGCGUGAAAGAGAGAAGUGAACCAGAGACACACACGUUGUGGUCUAUUACCUGGUA | 0.15

Variant | self-cleavage
GUCCUCUUUCACGUGCGCGUGAAAGAGAGAAGUGAACCAGAGUAACACACGUUGUUGUAUAUUACCUGGUA | 0.133
GUCCUCUUUCACGUGCGCGUGAAAGAGAGAAGUGAACCAGAGUAACACACGUUGUCGUAUAUUACCUGGUA | 0.0883
GUCCUCUUUCACGUGCGCGUGAAAGAGAGAAGUGAACCAGAGACACACACGUUGUGGUAUUUUACCUGGUA | 0.212
GUCCUCUUUCACGUGCGCGUGAAAGAGAGAAGUGAACCAGAGGAACACACGUUGUGGUAUAUUACCUAGUA | 0.172
GUCCUCUUUCACGUGCGCGUGAAAGAGAGAAGUGAACCAGAGGAACACACGUUGUGGUAUAUUACCUUGUA | 0.092
GUCCUCUUUCACGUGCGCGUGAAAGAGAGAAGUGAACCAGAGGAACACACGUUGUGGAAUAUUACCUGGUA | 0.128
GUCCUCUUUCACGUGCGCGUGAAAGAGAGAAGUGAACCAGAGACACGCACGUUGUGGUAUAUUACCUGGUA | 0.125
GUCCUCUUUCACGUGCGCGUGAAAGAGAGAAGUGAACCAGAGGAAGACACGUUGUGGUAUAUUACCUGGUA | 0.26
GUCCUCUUUCACGUGCGCGUGAAAGAGAGAAGUGAACCAGAGACACACAGGUUGUGGUAUAUUACCUGGUA | 0
GUCCUCUUUCACGUGCGCGUGAAAGAGAGAAGUGAACCAGAGGAACACACGUUGUCGUAUAUUACCUGGUA | 0.0421
GUCCUCUUUCACGUGCGCGUGAAAGAGAGAAGUGAACCAGAGGAACACACGUUGUUGUAUAUUACCUGGUA | 0.0228
GUCCUCUUUCACGUGCGCGUGAAAGAGAGAAGUGAACCAGAGACACACACGUUGUGGAAUAUUACCUGGUA | 0.0929
GUCCUCUUUCACGUGCGCGUGAAAGAGAGAAGUGAACCAGAGUAACACACGUUGUGGUAUAUUACCUGGGA | 0.0463
GUCCUCUUUCACGUGCGCGUGAAAGAGAGAAGUGAACCAGAGUAACCCACGUUGUGGUAUAUUACCUGGUA | 0.178
GUCCUCUUUCACGUGCGCGUGAAAGAGAGAAGUGAACCAGAGUAACACCCGUUGUGGUAUAUUACCUGGUA | 0.173
GUCCUCUUUCACGUGCGCGUGAAAGAGAGAAGUGAACCAGAGACACACACGUUGAGGUAUAUUACCUGGUA | 0.0312
GUCCUCUUUCACGUGCGCGUGAAAGAGAGAAGUGAACCAGAGGAACACACGAUGUGGUAUAUUACCUGGUA | 0.202
GUCCUCUUUCACGUGCGCGUGAAAGAGAGAAGUGAACCAGAGGAACACACGGUGUGGUAUAUUACCUGGUA | 0
GUCCUCUUUCACGUGCGCGUGAAAGAGAGAAGUGAACCAGAGUAACACACGUUGUGGUACAUUACCUGGUA | 0.221

— the RNAGym collection of RNA variant scans (doi:10.7554/elife.80360)
